US20250339531A1, “DUX4 POLYPEPTIDES AND NUCLEIC ACIDS FOR TREATING INFLAMMATORY AND AUTOIMMUNE CONDITIONS” (Fred Hutchinson Cancer Center, priority 2021, published 2025)

B1: O14929 (protein, UniProt O14929 1-419, looked up)
chain: MAGFGAMEKFLVEYKSAVEKKLAEYKCNTNTAIELKLVRFPEDLENDIRTFFPEYTHQLFGDDETAFGYKGLKILLYYIAGSLSTMFRVEYASKVDENFDCVEADDVEGKIRQIIPPGFCTNTNDFLSLLEKEVDFKPFGTLLHTYSVLSPTGGENFTFQIYKADMTCRGFREYHERLQTFLMWFIETASFIDVDDERWHYFLVFEKYNKDGATLFATVGYMTVYNYYVYPDKTRPRVSQMLILTPFQGQGHGAQLLETVHRYYTEFPTVLDITAEDPSKSYVKLRDFVLVKLCQDLPCFSREKLMQGFNEDMVIEAQQKFKINKQHARRVYEILRLLVTDMSDAEQYRSYRLDIKRRLISPYKKKQRDLAKMRKCLRPEELTNQMNQIEISMQHEQLEESFQELVEDYRRVIERLAQE
modifications: full-length
B2: P42224 (protein, UniProt P42224 1-750, looked up)
chain: MSQWYELQQLDSKFLEQVHQLYDDSFPMEIRQYLAQWLEKQDWEHAANDVSFATIRFHDLLSQLDDQYSRFSLENNFLLQHNIRKSKRNLQDNFQEDPIQMSMIIYSCLKEERKILENAQRFNQAQSGNIQSTVMLDKQKELDSKVRNVKDKVMCIEHEIKSLEDLQDEYDFKCKTLQNREHETNGVAKSDQKQEQLLLKKMYLMLDNKRKEVVHKIIELLNVTELTQNALINDELVEWKRRQQSACIGGPPNACLDQLQNWFTIVAESLQQVRQQLKKLEELEQKYTYEHDPITKNKQVLWDRTFSLFQQLIQSSFVVERQPCMPTHPQRPLVLKTGVQFTVKLRLLVKLQELNYNLKVKVLFDKDVNERNTVKGFRKFNILGTHTKVMNMEESTNGSLAAEFRHLQLKEQKNAGTRTNEGPLIVTEELHSLSFETQLCQPGLVIDLETTSLPVVVISNVSQLPSGWASILWYNMLVAEPRNLSFFLTPPCARWAQLSEVLSWQFSSVTKRGLNVDQLNMLGEKLLGPNASPDGLIPWTRFCKENINDKNFPFWLWIESILELIKKHLLPLWNDGCIMGFISKERERALLKDQQPGTFLLRFSESSREGAITFTWVERSQNGGEPDFHAVEPYTKKELSAVTFPDIIRNYKVMAAENIPENPLKYLYPNIDKDHAFGKYYSRPKEAPEPMELDGPKGTGYIKTELISVSEVHPSRLQTTDNLLPMSPEEFDEVSRIVGSVEFDSMMNTV
modifications: full-length
B3: Q9NQC3 (protein, UniProt Q9NQC3 1-1192, looked up)
chain: MEDLDQSPLVSSSDSPPRPQPAFKYQFVREPEDEEEEEEEEEEDEDEDLEELEVLERKPAAGLSAAPVPTAPAAGAPLMDFGNDFVPPAPRGPLPAAPPVAPERQPSWDPSPVSSTVPAPSPLSAAAVSPSKLPEDDEPPARPPPPPPASVSPQAEPVWTPPAPAPAAPPSTPAAPKRRGSSGSVDETLFALPAASEPVIRSSAENMDLKEQPGNTISAGQEDFPSVLLETAASLPSLSPLSAASFKEHEYLGNLSTVLPTEGTLQENVSEASKEVSEKAKTLLIDRDLTEFSELEYSEMGSSFSVSPKAESAVIVANPREEIIVKNKDEEEKLVSNNILHNQQELPTALTKLVKEDEVVSSEKAKDSFNEKRVAVEAPMREEYADFKPFERVWEVKDSKEDSDMLAAGGKIESNLESKVDKKCFADSLEQTNHEKDSESSNDDTSFPSTPEGIKDRSGAYITCAPFNPAATESIATNIFPLLGDPTSENKTDEKKIEEKKAQIVTEKNTSTKTSNPFLVAAQDSETDYVTTDNLTKVTEEVVANMPEGLTPDLVQEACESELNEVTGTKIAYETKMDLVQTSEVMQESLYPAAQLCPSFEESEATPSPVLPDIVMEAPLNSAVPSAGASVIQPSSSPLEASSVNYESIKHEPENPPPYEEAMSVSLKKVSGIKEEIKEPENINAALQETEAPYISIACDLIKETKLSAEPAPDFSDYSEMAKVEQPVPDHSELVEDSSPDSEPVDLFSDDSIPDVPQKQDETVMLVKESLTETSFESMIEYENKEKLSALPPEGGKPYLESFKLSLDNTKDTLLPDEVSTLSKKEKIPLQMEELSTAVYSNDDLFISKEAQIRETETFSDSSPIEIIDEFPTLISSKTDSFSKLAREYTDLEVSHKSEIANAPDGAGSLPCTELPHDLSLKNIQPKVEEKISFSDDFSKNGSATSKVLLLPPDVSALATQAEIESIVKPKVLVKEAEKKLPSDTEKEDRSPSAIFSAELSKTSVVDLLYWRDIKKTGVVFGASLFLLLSLTVFSIVSVTAYIALALLSVTISFRIYKGVIQAIQKSDEGHPFRAYLESEVAISEELVQKYSNSALGHVNCTIKELRRLFLVDDLVDSLKFAVLMWVFTYVGALFNGLTLLILALISLFSVPVIYERHQAQIDHYLGLANKNVKDAMAKIQAKIPGLKRKAE
modifications: full-length
B4: Q15393 (protein, UniProt Q15393 1-1217, looked up)
chain: MFLYNLTLQRATGISFAIHGNFSGTKQQEIVVSRGKILELLRPDPNTGKVHTLLTVEVFGVIRSLMAFRLTGGTKDYIVVGSDSGRIVILEYQPSKNMFEKIHQETFGKSGCRRIVPGQFLAVDPKGRAVMISAIEKQKLVYILNRDAAARLTISSPLEAHKANTLVYHVVGVDVGFENPMFACLEMDYEEADNDPTGEAAANTQQTLTFYELDLGLNHVVRKYSEPLEEHGNFLITVPGGSDGPSGVLICSENYITYKNFGDQPDIRCPIPRRRNDLDDPERGMIFVCSATHKTKSMFFFLAQTEQGDIFKITLETDEDMVTEIRLKYFDTVPVAAAMCVLKTGFLFVASEFGNHYLYQIAHLGDDDEEPEFSSAMPLEEGDTFFFQPRPLKNLVLVDELDSLSPILFCQIADLANEDTPQLYVACGRGPRSSLRVLRHGLEVSEMAVSELPGNPNAVWTVRRHIEDEFDAYIIVSFVNATLVLSIGETVEEVTDSGFLGTTPTLSCSLLGDDALVQVYPDGIRHIRADKRVNEWKTPGKKTIVKCAVNQRQVVIALTGGELVYFEMDPSGQLNEYTERKEMSADVVCMSLANVPPGEQRSRFLAVGLVDNTVRIISLDPSDCLQPLSMQALPAQPESLCIVEMGGTEKQDELGERGSIGFLYLNIGLQNGVLLRTVLDPVTGDLSDTRTRYLGSRPVKLFRVRMQGQEAVLAMSSRSWLSYSYQSRFHLTPLSYETLEFASGFASEQCPEGIVAISTNTLRILALEKLGAVFNQVAFPLQYTPRKFVIHPESNNLIIIETDHNAYTEATKAQRKQQMAEEMVEAAGEDERELAAEMAAAFLNENLPESIFGAPKAGNGQWASVIRVMNPIQGNTLDLVQLEQNEAAFSVAVCRFSNTGEDWYVLVGVAKDLILNPRSVAGGFVYTYKLVNNGEKLEFLHKTPVEEVPAAIAPFQGRVLIGVGKLLRVYDLGKKKLLRKCENKHIANYISGIQTIGHRVIVSDVQESFIWVRYKRNENQLIIFADDTYPRWVTTASLLDYDTVAGADKFGNICVVRLPPNTNDEVDEDPTGNKALWDRGLLNGASQKAEVIMNYHVGETVLSLQKTTLIPGGSESLVYTTLSGGIGILVPFTSHEDHDFFQHVEMHLRSEHPPLCGRDHLSFRSYYFPVKNVIDGDLCEQFNSMEPNKQKNVSEELDRTPPEVSKKLEDIRTRYAF
modifications: full-length
B5: Q92973 (protein, UniProt Q92973 1-898, looked up)
chain: MVWDRQTKMEYEWKPDEQGLQQILQLLKESQSPDTTIQRTVQQKLEQLNQYPDFNNYLIFVLTKLKSEDEPTRSLSGLILKNNVKAHFQNFPNGVTDFIKSECLNNIGDSSPLIRATVGILITTIASKGELQNWPDLLPKLCSLLDSEDYNTCEGAFGALQKICEDSAEILDSDVLDRPLNIMIPKFLQFFKHSSPKIRSHAVACVNQFIISRTQALMLHIDSFIENLFALAGDEEPEVRKNVCRALVMLLEVRMDRLLPHMHNIVEYMLQRTQDQDENVALEACEFWLTLAEQPICKDVLVRHLPKLIPVLVNGMKYSDIDIILLKGDVEEDETIPDSEQDIRPRFHRSRTVAQQHDEDGIEEEDDDDDEIDDDDTISDWNLRKCSAAALDVLANVYRDELLPHILPLLKELLFHHEWVVKESGILVLGAIAEGCMQGMIPYLPELIPHLIQCLSDKKALVRSITCWTLSRYAHWVVSQPPDTYLKPLMTELLKRILDSNKRVQEAACSAFATLEEEACTELVPYLAYILDTLVFAFSKYQHKNLLILYDAIGTLADSVGHHLNKPEYIQMLMPPLIQKWNMLKDEDKDLFPLLECLSSVATALQSGFLPYCEPVYQRCVNLVQKTLAQAMLNNAQPDQYEAPDKDFMIVALDLLSGLAEGLGGNIEQLVARSNILTLMYQCMQDKMPEVRQSSFALLGDLTKACFQHVKPCIADFMPILGTNLNPEFISVCNNATWAIGEISIQMGIEMQPYIPMVLHQLVEIINRPNTPKTLLENTAITIGRLGYVCPQEVAPMLQQFIRPWCTSLRNIRDNEEKDSAFRGICTMISVNPSGVIQDFIFFCDAVASWINPKDDLRDMFCKILHGFKNQVGDENWRRFSDQFPLPLKERLAAFYGV
modifications: full-length
B6: P11802 (protein, UniProt P11802 1-303, looked up)
chain: MATSRYEPVAEIGVGAYGTVYKARDPHSGHFVALKSVRVPNGGGGGGGLPISTVREVALLRRLEAFEHPNVVRLMDVCATSRTDREIKVTLVFEHVDQDLRTYLDKAPPPGLPAETIKDLMRQFLRGLDFLHANCIVHRDLKPENILVTSGGTVKLADFGLARIYSYQMALTPVVVTLWYRAPEVLLQSTYATPVDMWSVGCIFAEMFRRKPLFCGNSEADQLGKIFDLIGLPPEDDWPRDVSLPRGAFPPRGPRPVQSVVPEMEESGAQLLLEMLTFNPHKRISAFRALQHSYLHKDEGNPE
modifications: full-length
B7: Q16576 (protein, UniProt Q16576 1-425, looked up)
chain: MASKEMFEDTVEERVINEEYKIWKKNTPFLYDLVMTHALQWPSLTVQWLPEVTKPEGKDYALHWLVLGTHTSDEQNHLVVARVHIPNDDAQFDASHCDSDKGEFGGFGSVTGKIECEIKINHEGEVNRARYMPQNPHIIATKTPSSDVLVFDYTKHPAKPDPSGECNPDLRLRGHQKEGYGLSWNSNLSGHLLSASDDHTVCLWDINAGPKEGKIVDAKAIFTGHSAVVEDVAWHLLHESLFGSVADDQKLMIWDTRSNTTSKPSHLVDAHTAEVNCLSFNPYSEFILATGSADKTVALWDLRNLKLKLHTFESHKDEIFQVHWSPHNETILASSGTDRRLNVWDLSKIGEEQSAEDAEDGPPELLFIHGGHTAKISDFSWNPNEPWVICSVSEDNIMQIWQMAENIYNDEESDVTTSELEGQGS
modifications: full-length

System: proteins that co-immunoprecipitated with DUX4-CTD constructs expressed in MB135 myoblasts
Assay: LC-MS of proteins co-immunoprecipitated with DUX4-CTD (Table 1) and western validation
Type: binding, human
Parameters: key to 4. mL1dL2 + Dox + IFNG / 4. + IFNG mix / 4. longCTD + Dox + IFNG / 3. + IFNg + Dox longCTD / 3. + Dox longCTD / 3. + IFNG longCTD: peptide-spectrum matches (PSMs) per protein
Details: for 4. longCTD + Dox + IFNG: LC-MS counts of the listed protein co-immunoprecipitated with DUX4-CTD bait longCTD; for 3. + IFNg + Dox longCTD / 3. + Dox longCTD: bait longCTD; for 3. + IFNg + Dox longCTD: experiment 3, IFNg + Dox; for SUM of PSMS: sum over all samples; for 3. + Dox longCTD: experiment 3, Dox only
Outline: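 Two independent experiments compared uninduced, doxycycline and doxycycline+IFNG MB135iDUX4-CTD (plus MB135iDUX4mL1dL2) myoblasts. Anti-FLAG pulldowns (3 h, 4 °C) were eluted in LDS buffer for western validation or with FLAG peptide for trypsin digestion and Orbitrap LC-MS; hits needed ≥2 PSMs in both experiments, ranked by total PSMs.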

Molecule	4. longCTD + Dox + IFNG (experiment 4, Dox + IFNG)	3. + IFNg + Dox longCTD	SUM of PSMS	3. + Dox longCTD	4. mL1dL2 + Dox + IFNG (LC-MS counts of the listed protein co-immunoprecipitated with DUX4-CTD bait mL1dL2, experiment 4, Dox + IFNG)
B1	9	3	23	–	–
B2	19	3	43	–	–
B3	6	7	23	–	–
B4	1	3	15	1	–
B5	3	4	14	1	6
B6	11	1	16	1	–
B7	5	4	25	–	–
